Source: PMC8297725

Tests used:
Cys215 = Cys215 (UniProt position 215, PVVVHCSAGIG); test: kinetics; conditions: 25 °C; constant ionic strength buffer mix (value not stated); 50 mM sodium acetate, 100 mM Tris, 100 mM bis-Tris; steady-state turnover with the substrate pNPP
Asp181 [1] = target: Asp181 (UniProt position 181, YTTWPDFGVPE); test: kinetics; conditions: 25 °C; constant ionic strength buffer mix (value not stated); 50 mM sodium acetate, 100 mM Tris, 100 mM bis-Tris; steady-state turnover with the substrate pNPP
Asp181 [2] = target: Asp181 (UniProt position 181, YGTWPDFGVPE); test: kinetics; conditions: 25 °C; constant ionic strength buffer mix (value not stated); 50 mM sodium acetate, 100 mM Tris, 100 mM bis-Tris; steady-state turnover with the substrate pNPP
Asp356 = Asp356 (UniProt position 356, VGNWPDQTAVS); test: kinetics; conditions: 25 °C; constant ionic strength buffer mix (value not stated); 50 mM sodium acetate, 100 mM Tris, 100 mM bis-Tris; steady-state turnover with the substrate pNPP
Cys403 [3] = target: T1, Cys403 (UniProt position 403, RPVIHCRAGVG); test: kinetics; conditions: 25 °C; constant ionic strength buffer mix (value not stated); 50 mM sodium acetate, 100 mM Tris, 100 mM bis-Tris; steady-state turnover with the substrate pNPP
Cys403 [4] = target: T1, Cys403; test: chemical modification; conditions: ligand-free enzyme

Substance | pKa (Cys215) | pKa (Asp181 [1]) | pKa (Asp181 [2]) | pKa (Asp356) | pKa (Cys403 [3]) | pKa (Cys403 [4]) | pKa (Cys403 [4]; cited from earlier work)
Protein tyrosine phosphatase 1B (PTP1B), wild type (Homo sapiens) | 5.08 ± 0.20 | 6.44 ± 0.26 | – | – | – | – | –
PTP1B T177G (Homo sapiens; T177G) | 5.44 ± 0.37 | – | 6.37 ± 0.28 | – | – | – | –
YopH (Yersinia protein tyrosine phosphatase), wild type (Yersinia (species not stated in the article)) | – | – | – | 5.58 ± 0.34 | 5.02 ± 0.27 | 4.6 ± 0.2 | 4.67 ± 0.15
